Laboratory results taken from the nanobody polyreactivity screen of Harvey et al. (2022).

Experiment: yeast display, Sf9 membrane polyspecificity reagent, FACS + sequencing; frameworks hold sequencing errors
Outline: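 Sorting gates, low and high (top ~1%), were placed on anti-HA fluorescence to track expression and on streptavidin fluorescence to track reagent binding. A clone's polyreactivity label is taken from the gate it came out of. The reagent was 10% biotinylated, detergent-solubilized Sf9 membrane, applied for 1 hour at 4 °C to galactose-induced yeast display cells.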

| Sequence | polyreactivity (PSR sort gate) |
| --- | --- |
| QVQLVESGGGLVQAGGSLRLSCAASGSIFISYAMGWYRQAPGKERELVAAISSGGSTNYADSVKGRFTISRDNAKNTVYLQMNSLIPEDTAVYYCAAASAAGYDYWGQGTQVTVSS | low polyreactivity |
| QVQLVESGGGLVQPGGSLRLSCAASGRIFKRNAMGCYRQAPGKERELVAAITWRGGSTYYADSVKGRFTISRDNAKNTVYLQMKSMKPEDTAVYYCNVGYGGSSDGGYDYWGHGTQVTVSS | high polyreactivity |
| QVQLVESGGGLVQAGGSLRLSCAASGGIFAVNVMGWYRQAPGKERELVAAITSTGSTYYADSVKGRFTISRDNAKNTVYLQMNSLKPEDTAVYYCASDYVYYDSYDDTVFGYEYWGQGTQVTVSS | high polyreactivity |
| QVQLVESGGGLVQAGGSLRLSCAASGSTFGYYAMGWYRQAPGKERELVAAITGSGGRTYYADSVKGRFTISRDNAKNTVYLQMNSLKPEDTAVYYCAARTYRTEFAYGSWGQGTQVTVSS | low polyreactivity |
| QVQLVESGGGLVQAGGSLRLSCAASGRTFRVYAMGWYRQAPGKERELVAAISRSTGDTYYADSVKGRFTISRDNAKNSVYLLMNRLKPEDTAVYYCAADVPGGEGDYAYEYWGQGTQVTVSS | low polyreactivity |
| QVQLVESGGGLVQAGGSLRLSCAASGRIFRGYTMGWYRQAPGKEREFVAAITANGGRTYYADSVKGRFTISRDTAKNTVYLKMNRLKPEDTAVYYCNARTYTYRGSFDYWVQGTQVTVSS | high polyreactivity |
| QVQLVESGGGLVQAGGSLRLSCAASGITFAIYDMGWYRQAPGKERELVAVISGRGGSTYYADSVKGRFTISRDNAKNTVYLQMNSLKPEDTAVYYCAARGEASIFAGYDYWGQGTQVTVSS | low polyreactivity |
| QVQLVESGGGLVQAGGSLRLSCAASGIIFYYYAMGWYRQAPGKERELVAAITGTGSRTYYADSVKGRFTISRDNAKNTVYLQMNSLKPEDTAVYYCNARSFATGSKVPARGYWGQGTQVTVSS | high polyreactivity |
| QLQLVESGGGLVQAGGSLRLSCAASGSIFYGYAKGWYRQAPGTERELVAAINTSGGSTFYADSVKGRFTISRDNANNTVYLQMNSLKPEDTAVYYCAAERYRYRSTDTMGYWGQGTQVTVSS | low polyreactivity |
| KVLLVESGGGLVQAGGSLRLSCAASGSIFHGNAMGWYRQAPGKERELVATISSGGSTYYADSVKGLFTISRDNAKNTVDLQMNSLKPEDTAVYYCAAERFWPYKSYYWGQGTQVTVSS | low polyreactivity |
| QVQLVESGGGLVQAGGSLRLSCAASGTFGGYAMGWYRQAPGKERELVARIRRNGGSTYYADSVKGRFTISRDTAKNTVYLQMNSLKPEDTAVYYCATDQLSLSSYFRPYDYGYWGQGTQVTVSS | high polyreactivity |
| QVQLEESGGGLVQAGGSLRLSCAASGRTFRRNAMGWYRQAPGKERELVADISNGDSTKYADSVKGRFTISRDNAKNTVYLQMHSLIPEDTAVYYCNAQRYRVVVYISHGWQTRNYWGQGTQVTVSS | low polyreactivity |
| QVQLVESVGGLVQAGGSLRLSCAASGRIFEVYVMGWYRQAPGKERELVAAISTGGSTYYADSVKGRFTISRDNAKNTVYLQMNSLKPEDTAVYYCAARKTRRYGSGHDYWGQGTQVTVSS | high polyreactivity |
| QVQLVESGGGLLQAGGSLRLSCAASGSTFYIYSMGCYRQAPGKERELVARISGAGGSTYYSDSVKGRFTISRDNAKNTVYFQMNCLNPEDTAVYYCAAVDIYKYYQYYACPYDSYDYWGQGTQVTVSS | low polyreactivity |
| QVQLVESGGGLVQAGGSRRIICAASGSIFGYYAMGWYRQAPGKEREFVAAISGRGSSTYYADSVKGRFTISRDNAQNTVYLQMNSLKPEDTAVYYCARVTYKHYGYWGQGTQVTVSS | high polyreactivity |
| QVQLVESGGGLVQAGGSLRLRCAASGFTFGAYAMGWYRQAPGKERELVATIDWRGSSTYYADSVKGRFTISRDNAKNTVYLQMNSLKPEDTAVYYCAARLARGSYAYEYWGQGTQVTVSS | low polyreactivity |
| QVQLVESGGGLVQAGGSLRLSCAASGRTFRRYAMGWYRQAPGKERELVAAISRGANTNYADSVKGRFTISRDNAKNTVYLQMNSLKPEDTAVYYCIAKQAGYYFAFGYWGQGTQVTVSS | high polyreactivity |
| QVQLVESGGGLVQAGGSVRLSCAASGLIFTIYAMGWYRQAPGKERELVAVITWSGGSTYYADSVKGRFTISRDNAKNTVYLQMYSLKPEDTAVYYCAVEWAYPYWYTYYLEDYWGQGTQVTVSS | low polyreactivity |
| QDQLVESGGGLVQARGSLRLSSAATGSIFGTKAKGWYRQATGKEKEYDAAIDYSGSITRYADSVKGRFTISRDLSKNTVYLKMNSLKPEDTAVYYCAARSYAKDWGGYNYWGQGTQGTVSS | high polyreactivity |
| QVQLVESGGGLVQAGGSLSLSCAASGSIFWYNAMGWYRQAPGKERELVAGITSGGDTNYADSVKGRFTISRDNAKNTFYLQMNSLKPEDTAVYYCNTPSGPGNVGYYRRKWYGYWGQGTQVSVSS | low polyreactivity |
| QVQLVESGGGLFQAGGSHRLSCAASGSTFKQYAMGWYRQAPGKERELVAAIDRGGSTYYADSVKGRFTITRDNAKITVYLQMTSLKPEDTAVYYCAARFVQYRYAYDYWGQGTQVTVSS | low polyreactivity |
| QDHHVESGGGLVQARGTLRLSCAASGIIYSYYAMGWFRQAPGKEWELVAAITASGGSTYYADSVKGRFTISRDNAKNTVYLQMNSLKPQDTGVSYCAAGSFFLHLIGYSTVSYGRNYWGQGTQVTVAS | high polyreactivity |

| Sequence | polyreactivity (PSR sort gate) |
| --- | --- |
| QVQLVESGGGLVQAGGSLRLSCAASGGIFGGYAMGWYRPAPGKEGELVAVITSGGSTYYADSVKGRFTISRDNAKNTVYLQMNSLKPEDTAVYYCAALGQYQTVYSDGYDYYYWGQGTKVTVSS | low polyreactivity |
| QVQLVESGGGLVQAGGRLRLSCAASGFIFYYYAMGWYRQAPGKERELVAVLTESASSTYYADSVKGRFTISRDNAKNTVYLQMNSLKPEDTAVYYCNADFWPYTGKYDYWGQGTQVTVSS | low polyreactivity |
| QVQLVESGGGLVQAGGSLRLSCAASGNAMGWYRQAPGKERELVAAITRRVGSTYYADSVKGRFTISRDNAKNTVYLQMNSLKPEDTAVYYCAADNPSYNLWYGYWGQGTQVTVSS | low polyreactivity |
| QVQLVESGGGLVQAGGSLRLSCAASGSTSYNAMGWYRQAPGKERELVAAISDGGGSTYYADSVKGRFTISRDNAKNTVYLQMNSLKPEDTAVYYCAADTITGDGYWAQGTQVTVSS | low polyreactivity |
| QVQIVESRGGLVQAGGSLRLSCSASGRTFTYYAMGWYRQAPGKERELVASITSGGSTYADSVKGRFTISRDNAMNTVYLQMNSLKPEDTAVYYCAARAWGYRYKYYWGQGTLVTVSS | high polyreactivity |
| QVQLVESGGGLVQAGGSLRLSCAASGSTFGFNVMGWYRQAPGKERELVAVITSDGNTYYADSVKGRFTISRDNAKNTVYFQMNSLIPEDTAVYYCAVSELGTPYGYWGQGTQVTVSS | low polyreactivity |
| QVHLVESVGGLVQAGGSLRLSCAASGSTFIYYAMVRYRQAPGKERELVASISRSGGSTYYADSVKGRFTISRDNAKNTVYLQMNSLKPEDTAFYYCARAYRSSFNYWGQGTQVTVSS | high polyreactivity |
| QVQLVESGGGLVQAGGSLRLSCAASGFTFYPYAMGWYRQAPGKERELVAIRSDGSTYYADSVKGRFTISRDNAKNTVYLQMNCLKPEDTAVYYCNTEPSRDSYSLYFQTRGDYWGQGTQVTVSS | low polyreactivity |
| QVQLVESGVGLVQAGGSLRLSCAPSGSTLGYYVMGWYRQAPGKERELVAAITGGGSTDYADSVNGRFTISRDNAKNTVYLQMNSLKPEDTAVYYCAAERTRTGQLFWWGPIYDYWGLGTQVTVSS | low polyreactivity |
| QVQLVESGGGLVQAGGSLRLSCAASGRTFSYYAMGCYRQAPGKERELVAAISQRGGSTYYADSVKGRFTISRDNAKNTVYLQMNSLKPEDTAVYYCAVLVSRYRYRVLDDYWGQGTQVTVSS | high polyreactivity |
| QVQLVESGGGLVQAGGSLRLSCAASGIIFDINAMGWYRQAPGKERELVAAITTSVDSTYYADSVKGRFTISRDTAKNTVYLQMNSLKPEDTAVYYCAVAFVQFTQYDYWGQGTQVTVSS | low polyreactivity |
| QVQIVESGGGLVQAGGSLRISCAPSGLTFGYYAMGWYRQAPGTERELVAAITYRGGSTYYADSVKGRFTISRDNAKNTVYLQMNSLKPEDTAVYYCATDYFYYDYWGQGTQVTVSS | low polyreactivity |
| QVQLVESGGGLVQAGGSLRLSCAASGRTFNGYAMGWYRQAPGKERELVAGISWRGTSTYYADSVKGRFTISRDNAKNTVYLQMNSLKPEDTAVYYCAADVWRVQHRGYNYWGQGTQVTVSS | high polyreactivity |
| QVQLVESGGGLVQAGGSLRLSCAASGIFVSDAMGWYSQAPGKVRELVAAIRYSGDSTYYADSVKGRFTISRDNAKNTVYLQMNSLKPEDTAVYYCAATKGWTRYEYWGQGTQVTVSS | low polyreactivity |
| QVQLVESGGGLVQAGGSLRLSCAASGRIFSRNTMGWYRQAPGKEREFVAAISQSGGRTYYADSVKGRFTISRDNAKNTVYLQMNSLKPEDTAVYYCAAPSQSRGYYYWGQGTQVTVSS | high polyreactivity |
| QVQLVESGGGVVQAGGSLRLSCAATGFTFAANTKGWYRQPPGKERELVADISGRGDRTSYADSVKGRFTISRDNAKYTVYLQINSLKPEDTAVYYCAVDIFYYSNVHYYYWGQGTQVTVSS | low polyreactivity |
| QVQLVESGGGLVQAGGSLRLSCAASGRIFGKYAMGWYRQAPRKERELVARISFSGGTTYYADSVKGRFTISRDNAKNTVYLQMKSLKPEDTAVYYGNARRVWSQRWAYDSWGQGTQVTVSS | high polyreactivity |
| QVQLVDSGGGLVQAGGSLRLSCAASGSIFVGNAMGWYRQAPGKERELVAAISWRGGRTYYADSVKGRFTISRDNAKYTVYLQMNSLKPEDTAVYYCATVKARDYGYWGQGTQVTVSS | high polyreactivity |
| QDQLVESGGGLVQAGGSLRLSCAASGSTFPDYAMGWYRQAPGKERELVAAISRSGGRTYYADSVKGRFTISRDNAKNTVYLQMNSLKPDDTAVYYCATSRVRSAGRDYWGQGTQVTVSS | high polyreactivity |
| QVQLVESGGGLVQAGGSLRLSCAASGGTFWWYTMGWYRQAPGKERELVATITRGGSTNYADSVKGRFTISRDNAKNTVYLQMNSLKPEDTAVYYCAKRYRPYYSTYDYWGQGTQVTVSS | high polyreactivity |
| QVQLVESGGGLVQAGGSLRLSCAASGRIFPYYAMGWYRQAPGKERELVAAITTSGGSTYYADSVKGRFTISRDNAKNTVYLQMNSLKPEDTAVYYCARDLYYYSPYDEYDSWGQGTQVTVSS | low polyreactivity |
